Laboratory results as given in patent publication US20140162951A1.

Biological target: recombinant enovin (mature human enovin with NH2-terminal 6xHis tag, expressed from hEVNmat/pRSETB in E. coli) (human)
Test: SPR (BIAcore 3000), enovin immobilized, soluble GFRα3-Fc at three concentrations

Kd: 3.1 nM | koff: 0.000508 s⁻¹ | kon: 165000 M⁻¹ s⁻¹
B1: soluble GFRα-3 IgG1-Fc fusion protein (Fc fusion, UniProt O60609 28-371, looked up, not shown: a dimerising Fc or GST)
chain: LAAGDPLPTESRLMNSCLQARRKCQADPTCSAAYHHLDSCTSSISTPLPSEEPSVPADCLEAAQQLRNSSLIGCMCHRRMKNQVACLDIYWTVHRARSLGNYELDVSPYEDTVTSKPWKMNLSKLNMLKPDSDLCLKFAMLCTLNDKCDRLRKAYGEACSGPHCQRHVCLRQLLTFFEKAAEPHAQGLLLCPCAPNDRGCGERRRNTIAPNCALPPVAPNCLELRRLCFSDPLCRSRLVDFQTHCHPMDILGTCATEQSRCLRAYLGLIGTAMTPNFVSNVNTSVALSCTCRGSGNLQEECEMLEGFFSHNPCLTEAIAAKMRFHSQLFSQDWPHPTFAVMAHQ
